Data: patent publication US5985836A, “Alpha-1 proteinase inhibitor binding peptides” (Bayer Corporation, priority 1998, dated 1999)
Blank lines part the entries; values can stand above or below the substance they belong to. Ends that are not written are not given here.

Key:
[1] = molecular target: T1, A1PI (Homo sapiens, UniProt P01009); assay: A1PI yield from dialyzed (aqueous) Effluent II+III; assay type: binding; settings: 4° C.; for Mass A1PI per Eluate Fraction, 1M NaCl / Mass A1PI per Eluate Fraction, 2% Acetic Acid / Mass A1PI per Eluate Fraction, Flowthrough: 1 ml dialyzed Eff. II+III (ethanol removed); for Percent Eluted by Fraction, 1M NaCl / Percent Eluted by Fraction, 2% Acetic Acid / Percent Eluted by Fraction, Flowthrough: A1PI, 1 ml dialyzed Eff. II+III
T1 construct: Human plasma is currently the only approved source of therapeutic AlPI
Method: Effluent II+III was dialyzed against equilibration buffer at 4° C. to remove the ethanol using a 15,000 molecular weight cut-off membrane. Nephelometry of the Eff. […] A portion of the identified sequences were assayed under the same conditions applied for neat Eff. II+III at 4° C. […] II+III compared to the neat, ethanol-containing feed. The binding strength differed for the aqueous feed as more AlPI eluted in 1M NaCl for the aqueous feed. The AlPI eluted in the 1M NaCl fractions was not as enriched as that eluted in the acid eluates.

[2] = molecular target: T1, A1PI; assay: A1PI purification from 5 mg hSA + 1 mg A1PI on peptide column, A1PI mass balance; assay type: binding; settings: for Mass Protein per Eluate Fraction, 1M NaCl / Mass Protein per Eluate Fraction, 2% Acetic Acid / Mass Protein per Eluate Fraction, Flow / Percent Eluted by Fraction, 1M NaCl / Percent Eluted by Fraction, 2% Acetic Acid / Percent Eluted by Fraction, 3M NaCl / Percent Eluted by Fraction, Flow / Mass Protein per Eluate Fraction, 2% Ac. Acid / Mass Protein per Eluate Fraction, 3M NaCl / Percent Eluted by Fraction, 2% Ac. Acid: A1PI, 5 mg hSA + 1 mg A1PI; for Mass Protein per Eluate Fraction, 1M NaCl / Mass Protein per Eluate Fraction, 2% Acetic Acid / Mass Protein per Eluate Fraction, Flow / Mass Protein per Eluate Fraction, 2% Ac. Acid / Mass Protein per Eluate Fraction, 3M NaCl: * Below detection limit; for Mass AlPI Eluted in Acid Eluate: nephelometry
Outline: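 Mass balance by immunonephelometry of fractions from step elutions (1M NaCl, 3M NaCl, 2% acetic acid, neutralised with Tris) at 865 μl/min. Sample was a mixture of 1 mg A1PI and 5 mg hSA held 10 min on peptide-derivatised Toyopearl columns (0.1 mmole/g) at 4 °C or 20 °C.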

[3] = tested on: Immunoglobulin A (IgA); assay: Purification from Effluent II+III, IgA mass balance; assay type: binding, human; settings: 1 ml Eff. II+III, 4° C.
Outline: (§1)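 Mass balance per protein was determined over the load and each step eluate (1M NaCl, 3M NaCl, 2% acetic acid) of peptide columns challenged with 1 ml Effluent II+III. The feed contained 20% ethanol and 20-25 mg/ml hSA, the flow was 865 μl/min after a 10 min residence, and the temperature was 4° C.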

[4] = molecular target: T2, apolipoprotein alpha-1 (Apo A-1) (Homo sapiens, UniProt P02647); assay: Purification from Effluent II+III, Apo A-1 mass balance; assay type: binding; settings: 1 ml Eff. II+III, 4° C.
T2 construct: Eff; II+III is a process intermediate in the Cohn plasma fractionation process; tissue Bayer Corporation (Clayton, N.C.); host or cells: plasma fraction: Cohn Effluent II+III
Outline: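 First, 1 ml of the ethanolic Cohn intermediate (20% ethanol, ~1 mg/ml A1PI) is injected and held for a 10 min residence time. Columns are then eluted stepwise at a constant 865 μl/min with 1M NaCl, 3M NaCl and finally 2% acetic acid, all at 4° C.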

[5] = tested on: Immunoglobulin G (IgG); assay: Purification from Effluent II+III, IgG mass balance; assay type: binding, human; settings: 1 ml Eff. II+III, 4° C.
Outline: as §1

[6] = Table 10, 4° C., relative to total loaded
[7] = Table 10, 20° C., relative to total loaded
[8] = Table 19, 4° C., relative to total loaded
[9] = Table 19, 20° C., relative to total loaded
[10] = * as in Tables 4, 5 (below detection limit)
[11] = 4° C., relative to total eluted
[12] = 20° C., relative to total eluted

T1 sequence (P01009 25-418): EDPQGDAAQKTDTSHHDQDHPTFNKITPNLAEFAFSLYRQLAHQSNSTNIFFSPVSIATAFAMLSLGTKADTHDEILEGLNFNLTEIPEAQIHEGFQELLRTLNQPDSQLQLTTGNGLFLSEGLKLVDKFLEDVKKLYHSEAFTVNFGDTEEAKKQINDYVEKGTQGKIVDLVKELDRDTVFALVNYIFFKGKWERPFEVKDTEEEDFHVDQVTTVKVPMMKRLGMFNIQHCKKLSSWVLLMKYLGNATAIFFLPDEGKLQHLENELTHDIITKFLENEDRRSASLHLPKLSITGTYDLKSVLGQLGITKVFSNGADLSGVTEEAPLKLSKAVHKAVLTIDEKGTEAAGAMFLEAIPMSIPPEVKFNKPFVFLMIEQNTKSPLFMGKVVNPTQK
T2 sequence (P02647 19-267): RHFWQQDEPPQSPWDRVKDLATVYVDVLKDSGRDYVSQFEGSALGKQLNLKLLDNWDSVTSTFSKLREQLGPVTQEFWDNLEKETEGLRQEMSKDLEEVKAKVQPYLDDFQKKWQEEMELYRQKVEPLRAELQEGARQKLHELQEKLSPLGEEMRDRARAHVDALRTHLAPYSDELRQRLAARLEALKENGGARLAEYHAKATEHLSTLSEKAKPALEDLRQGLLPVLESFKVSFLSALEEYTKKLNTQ

Mass A1PI per Eluate Fraction, 1M NaCl [1]: 0.09 mg | Mass A1PI per Eluate Fraction, 2% Acetic Acid [1]: 0.37 mg | Mass A1PI per Eluate Fraction, Flowthrough [1]: 0.25 mg | Percent Eluted by Fraction, 1M NaCl [1]: 13% | Percent Eluted by Fraction, 2% Acetic Acid [1]: 51% | Percent Eluted by Fraction, Flowthrough [1]: 36% | Mass Protein per Eluate Fraction, 1M NaCl ([2]; Table 10, 4° C.): 0.05 mg | Mass Protein per Eluate Fraction, 2% Acetic Acid ([2]; Table 10, 4° C.): 0.61 mg | Mass Protein per Eluate Fraction, Flow ([2]; Table 10, 4° C.): 0.13 mg | Percent Eluted by Fraction, 1M NaCl [2, 6]: 7% | Percent Eluted by Fraction, 2% Acetic Acid [2, 6]: 77% | Percent Eluted by Fraction, 3M NaCl [2, 6]: 0% | Percent Eluted by Fraction, Flow [2, 6]: 16% | Mass Protein per Eluate Fraction, 1M NaCl ([2]; Table 10, 20° C.): 0.02 mg | Mass Protein per Eluate Fraction, 2% Acetic Acid ([2]; Table 10, 20° C.): 0.60 mg | Mass Protein per Eluate Fraction, Flow ([2]; Table 10, 20° C.): 0.17 mg | Percent Eluted by Fraction, 1M NaCl [2, 7]: 2% | Percent Eluted by Fraction, 2% Acetic Acid [2, 7]: 76% | Percent Eluted by Fraction, 3M NaCl [2, 7]: 0% | Percent Eluted by Fraction, Flow [2, 7]: 22% | Mass Protein per Eluate Fraction, 1M NaCl ([2]; Table 19, 4° C.): 0.05 mg | Mass Protein per Eluate Fraction, 2% Acetic Acid ([2]; Table 19, 4° C.): 0.61 mg | Mass Protein per Eluate Fraction, Flow ([2]; Table 19, 4° C.): 0.13 mg | Percent Eluted by Fraction, 2% Acetic Acid [2, 8]: 77% | Percent Eluted by Fraction, 3M NaCl [2, 8]: 0% | Percent Eluted by Fraction, Flow [2, 8]: 16% | Mass Protein per Eluate Fraction, 1M NaCl ([2]; Table 19, 20° C.): 0.02 mg | Mass Protein per Eluate Fraction, 2% Acetic Acid ([2]; Table 19, 20° C.): 0.60 mg | Mass Protein per Eluate Fraction, Flow ([2]; Table 19, 20° C.): 0.17 mg | Percent Eluted by Fraction, 2% Acetic Acid [2, 9]: 76% | Percent Eluted by Fraction, 3M NaCl [2, 9]: 0% | Percent Eluted by Fraction, Flow [2, 9]: 22%
Substance: VIFLVR

Mass A1PI per Eluate Fraction, 1M NaCl [1]: 0.15 mg | Mass A1PI per Eluate Fraction, 2% Acetic Acid [1]: 0.23 mg | Mass A1PI per Eluate Fraction, Flowthrough [1]: 0.24 mg | Percent Eluted by Fraction, 1M NaCl [1]: 24% | Percent Eluted by Fraction, 2% Acetic Acid [1]: 37% | Percent Eluted by Fraction, Flowthrough [1]: 39% | Percent Eluted by Fraction, 1M NaCl [4]: 0% | Percent Eluted by Fraction, 2% Acetic Acid [4]: 48% | Percent Eluted by Fraction, 3M NaCl [4]: 0% | Percent Eluted by Fraction, Flow [4]: 52% | Mass Protein per Eluate Fraction, 2% Acetic Acid [4, 10]: 0.29 mg | Mass Protein per Eluate Fraction, Flow [4, 10]: 0.32 mg | Mass AlPI Eluted in Acid Eluate ([2]; 250 μg AlPI injected with 5 mg hSA, 20° C.): 0.18 mg | Mass AlPI Eluted in Acid Eluate ([2]; 500 μg AlPI injected with 5 mg hSA, 20° C.): 0.48 mg | Mass AlPI Eluted in Acid Eluate ([2]; 1000 μg AlPI injected with 5 mg hSA, 20° C.): 0.70 mg | Mass Protein per Eluate Fraction, 1M NaCl ([2]; 4° C.): 0.20 mg | Mass Protein per Eluate Fraction, 2% Ac. Acid ([2]; 4° C.): 0.27 mg | Mass Protein per Eluate Fraction, 3M NaCl ([2]; 4° C.): 0.01 mg | Mass Protein per Eluate Fraction, Flow ([2]; 4° C.): 0.29 mg | Percent Eluted by Fraction, 1M NaCl [2, 11]: 26% | Percent Eluted by Fraction, 2% Ac. Acid [2, 11]: 35% | Percent Eluted by Fraction, 3M NaCl [2, 11]: 1% | Percent Eluted by Fraction, Flow [2, 11]: 38% | Mass Protein per Eluate Fraction, 1M NaCl ([2]; 20° C.): 0.08 mg | Mass Protein per Eluate Fraction, 2% Ac. Acid ([2]; 20° C.): 0.65 mg | Mass Protein per Eluate Fraction, 3M NaCl ([2]; 20° C.): 0.02 mg | Mass Protein per Eluate Fraction, Flow ([2]; 20° C.): 0.08 mg | Percent Eluted by Fraction, 1M NaCl [2, 12]: 9% | Percent Eluted by Fraction, 2% Ac. Acid [2, 12]: 80% | Percent Eluted by Fraction, 3M NaCl [2, 12]: 2% | Percent Eluted by Fraction, Flow [2, 12]: 9% | Mass Protein per Eluate Fraction, 1M NaCl ([2]; Table 10, 4° C.): 0.21 mg | Mass Protein per Eluate Fraction, 2% Acetic Acid ([2]; Table 10, 4° C.): 0.31 mg | Mass Protein per Eluate Fraction, 3M NaCl ([2]; Table 10, 4° C.): 0.03 mg | Mass Protein per Eluate Fraction, Flow ([2]; Table 10, 4° C.): 0.28 mg | Percent Eluted by Fraction, 1M NaCl [2, 6]: 26% | Percent Eluted by Fraction, 2% Acetic Acid [2, 6]: 38% | Percent Eluted by Fraction, 3M NaCl [2, 6]: 4% | Percent Eluted by Fraction, Flow [2, 6]: 35% | Mass Protein per Eluate Fraction, 1M NaCl ([2]; Table 10, 20° C.): 0.08 mg | Mass Protein per Eluate Fraction, 2% Acetic Acid ([2]; Table 10, 20° C.): 0.65 mg | Mass Protein per Eluate Fraction, 3M NaCl ([2]; Table 10, 20° C.): 0.02 mg | Mass Protein per Eluate Fraction, Flow ([2]; Table 10, 20° C.): 0.08 mg | Percent Eluted by Fraction, 1M NaCl [2, 7]: 9% | Percent Eluted by Fraction, 2% Acetic Acid [2, 7]: 80% | Percent Eluted by Fraction, 3M NaCl [2, 7]: 2% | Percent Eluted by Fraction, Flow [2, 7]: 9%
Substance: VIWLVR
Percent Eluted by Fraction, 1M NaCl [3]: 24% | Percent Eluted by Fraction, 2% Acetic Acid [3]: 39% | Percent Eluted by Fraction, 3M NaCl [3]: 0% | Percent Eluted by Fraction, Flow [3]: 37% | Mass Protein per Eluate Fraction, 1M NaCl [3, 10]: 0.11 mg | Mass Protein per Eluate Fraction, 2% Acetic Acid [3, 10]: 0.18 mg | Mass Protein per Eluate Fraction, Flow [3, 10]: 0.17 mg | Percent Eluted by Fraction, 1M NaCl [5]: 6% | Percent Eluted by Fraction, 2% Acetic Acid [5]: 0% | Percent Eluted by Fraction, 3M NaCl [5]: 0% | Percent Eluted by Fraction, Flow [5]: 94% | Mass Protein per Eluate Fraction, 1M NaCl [5, 10]: 0.02 mg | Mass Protein per Eluate Fraction, Flow [5, 10]: 0.36 mg
